Blank lines part the entries; values can stand above or below the binder they belong to.
Key:
INF2-Nterm = INF2-Nterm (human, UniProt Q27J81 1-420); test: fluorescence polarisation
[1] = target: chicken skeletal muscle actin (chicken, UniProt P68139 1-377); test: pull-down
[2] = target: rabbit skeletal muscle actin (rabbit, UniProt P68135 1-377); test: pull-down
[3] = target: fluorescently-labeled rabbit skeletal muscle actin (TMR-actin) (rabbit, UniProt P68135 1-377, TAMRA label (TAMRA NHS ester)); test: pull-down
AUC = target: the molecule itself; test: AUC

Sequence of INF2-Nterm (Q27J81 1-420): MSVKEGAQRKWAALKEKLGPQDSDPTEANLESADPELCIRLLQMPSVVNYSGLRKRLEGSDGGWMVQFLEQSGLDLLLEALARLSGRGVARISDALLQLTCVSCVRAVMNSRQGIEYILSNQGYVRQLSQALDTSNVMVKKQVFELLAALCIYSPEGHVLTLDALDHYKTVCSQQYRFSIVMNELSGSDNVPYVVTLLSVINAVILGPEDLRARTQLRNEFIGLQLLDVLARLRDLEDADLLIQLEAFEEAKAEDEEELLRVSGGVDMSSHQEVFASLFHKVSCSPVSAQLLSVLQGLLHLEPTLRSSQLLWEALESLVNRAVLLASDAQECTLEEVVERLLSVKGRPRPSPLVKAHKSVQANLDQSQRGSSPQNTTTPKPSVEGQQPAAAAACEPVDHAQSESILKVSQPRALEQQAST

Kd (INF2-Nterm): ~28 µM
B1: INF2-Cterm labeled with tetramethylrhodamine (domain or fragment)
chain: not shown
modifications: tetramethylrhodamine-succinimide (TMR) label

binding result [1]: binds
binding result [2]: binds
binding result [3]: binds
B2: human CAP2 with C-terminal GFP and Strep-tag II (natural protein)
chain: MANMQGLVERLERAVSRLESLSAESHRPPGNCGEVNGVIAGVAPSVEAFDKLMDSMVAEFLKNSRILAGDVETHAEMVHSAFQAQRAFLLMASQYQQPHENDVAALLKPISEKIQEIQTFRERNRGSNMFNHLSAVSESIPALGWIAVSPKPGPYVKEMNDAATFYTNRVLKDYKHSDLRHVDWVKSYLNIWSELQAYIKEHHTTGLTWSKTGPVASTVSAFSVLSSGPGLPPPPPPLPPPGPPPLFENEGKKEESSPSRSALFAQLNQGEAITKGLRHVTDDQKTYKNPSLRAQGGQTQSPTKSHTPSPTSPKSYPSQKHAPVLELEGKKWRVEYQEDRNDLVISETELKQVAYIFKCEKSTIQIKGKVNSIIIDNCKKLGLVFDNVVGIVEVINSQDIQIQVMGRVPTISINKTEGCHIYLSEDALDCEIVSAKSSEMNILIPQDGDYREFPIPEQFKTAWDGSKLITEPAEIMA
stoichiometry N (AUC): 6

Reference: article PMC6501848 (Nature cell biology, 2019)
